Results on two molecules are retold here after patent US20230265151A1, “GIP/GLP1 CO-AGONIST COMPOUNDS” (priority 2020, published 2023).

Targets include hGLP-1R (Homo sapiens, UniProt P43220); human GLP-1 receptor (human, UniProt P43220 24-463); human glucagon receptor (human, UniProt P47871 26-477).
Common to all, as to assay: cell-based or functional assay
Assay [1] has as its target T1, human GIP receptor (human) (UniProt P48546).
T1 sequence (looked up): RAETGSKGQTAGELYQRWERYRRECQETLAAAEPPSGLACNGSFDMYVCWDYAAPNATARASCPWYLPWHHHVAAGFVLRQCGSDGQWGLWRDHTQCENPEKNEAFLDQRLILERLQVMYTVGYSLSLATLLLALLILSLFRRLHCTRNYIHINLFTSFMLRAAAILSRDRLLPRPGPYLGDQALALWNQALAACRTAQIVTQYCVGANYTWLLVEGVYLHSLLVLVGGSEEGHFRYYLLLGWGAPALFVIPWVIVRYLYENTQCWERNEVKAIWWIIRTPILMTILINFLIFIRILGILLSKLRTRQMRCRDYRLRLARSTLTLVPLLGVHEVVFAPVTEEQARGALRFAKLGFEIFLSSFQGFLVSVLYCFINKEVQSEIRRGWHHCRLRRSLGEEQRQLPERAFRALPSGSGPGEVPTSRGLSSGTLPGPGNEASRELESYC

The target of assay [2] is human glucagon receptor (human) (UniProt P47871).
For the next assay, the target named is T2, human GIP receptor (human, UniProt P48546 22-466).
T2 sequence (looked up): T1 sequence (looked up)

*1 amine or outer side, *2 acyl side, *3 side chain or, on linkers, in order; H or OH if unused. Where no end group is shown, it is not given here. Side-chain parts run from the residue outwards. [ ]: non-standard residue; d: D form. The star is where a group is joined. Decanoyl(10-(4-HOOC-PhO)) = O=C(O)c1ccc(OCCCCCCCCCC(=O)*)cc1; αMePhe(2-F) = C[C@](N)(Cc1ccccc1F)C(=O)O; γGlu = O=C(O)[C@H](CCC(=O)[*:2])N[*:1]; C14 diacid = O=C(O)CCCCCCCCCCCCC(=O)*; αMeY = C[C@](N)(Cc1ccc(O)cc1)C(=O)O; αMeL = CC(C)C[C@](C)(N)C(=O)O; Orn = NCCC[C@H](N)C(=O)O; AEEA = NCCOCCOCC(=O)O; Aib = CC(C)(N)C(=O)O A value given as a limit tells only on which side of the number the result lay.

B1: Example 325 (peptide)
peptide: Y[Aib]EGT[αMePhe(2-F)]TSDV[Aib]I[αMeL]LD[Orn]K([AEEA-AEEA-γGlu-C14 diacid])AQ[Aib]EFI[dE][αMeY]LIK([AEEA-AEEA-γGlu-C14 diacid])GGPSSGAPPPS-NH2
modifications: N-terminus assumed
SMILES: CC[C@H](C)[C@H](NC(=O)[C@H](CC(C)C)NC(=O)[C@](C)(Cc1ccc(O)cc1)NC(=O)[C@@H](CCC(=O)O)NC(=O)[C@@H](NC(=O)[C@H](Cc1ccccc1)NC(=O)[C@H](CCC(=O)O)NC(=O)C(C)(C)NC(=O)[C@H](CCC(N)=O)NC(=O)[C@H](C)NC(=O)[C@H](CCCCNC(=O)COCCOCCNC(=O)COCCOCCNC(=O)CC[C@H](NC(=O)CCCCCCCCCCCCC(=O)O)C(=O)O)NC(=O)[C@H](CCCN)NC(=O)[C@H](CC(=O)O)NC(=O)[C@H](CC(C)C)NC(=O)[C@](C)(CC(C)C)NC(=O)[C@@H](NC(=O)C(C)(C)NC(=O)[C@@H](NC(=O)[C@H](CC(=O)O)NC(=O)[C@H](CO)NC(=O)[C@@H](NC(=O)[C@](C)(Cc1ccccc1F)NC(=O)[C@@H](NC(=O)CNC(=O)[C@H](CCC(=O)O)NC(=O)C(C)(C)NC(=O)[C@@H](N)Cc1ccc(O)cc1)[C@@H](C)O)[C@@H](C)O)C(C)C)[C@@H](C)CC)[C@@H](C)CC)C(=O)N[C@@H](CCCCNC(=O)COCCOCCNC(=O)COCCOCCNC(=O)CC[C@H](NC(=O)CCCCCCCCCCCCC(=O)O)C(=O)O)C(=O)NCC(=O)NCC(=O)N1CCC[C@H]1C(=O)N[C@@H](CO)C(=O)N[C@@H](CO)C(=O)NCC(=O)N[C@@H](C)C(=O)N1CCC[C@H]1C(=O)N1CCC[C@H]1C(=O)N1CCC[C@H]1C(=O)N[C@@H](CO)C(N)=O
Regarding B1, the cAMP EC50 in the assay with hGLP-1R was 0.225 nM; in assay [1], 0.0485 nM; in assay [2] it was greater than 9.95 µM. For the same molecule, the cAMP Emax with hGLP-1R worked out at 97.8%; in assay [1] it was 104%. The figures for the “cAMP EC50 (1.0% HSA)” value with human GIP receptor, with human GLP-1 receptor and with human glucagon receptor were 3.96 nM, 23.5 nM and greater than 9.95 µM, respectively. Further, the “cAMP Emax (1.0% HSA)” value with human GIP receptor is 94.7%; with human GLP-1 receptor, 98.4%.
Regarding Y[Aib]EGT[αMePhe(2-F)]TSDV[Aib]I[αMeL]LD[Orn]K([AEEA-AEEA-γGlu-Decanoyl(10-(4-HOOC-PhO))])AQ[Aib]EFI[dE][αMeY]LIK([AEEA-AEEA-γGlu-Decanoyl(10-(4-HOOC-PhO))])GGPSSGAPPPS-NH2 [Example 326], the cAMP EC50 was 0.186 nM in the assay with hGLP-1R, 0.0338 nM in assay [1] and greater than 9.95 µM in assay [2]. Moreover, the cAMP Emax with hGLP-1R turned out to be 94.4%; in assay [1] it was 102%. Further, the “cAMP EC50 (1.0% HSA)” value is 4.62 nM with human GIP receptor, 26.1 nM with human GLP-1 receptor and greater than 9.95 µM with human glucagon receptor. The “cAMP Emax (1.0% HSA)” value turned out to be 88.7% in the assay with human GIP receptor and 96.1% in the assay with human GLP-1 receptor.
